# Molecular target: the molecule itself
# Experiment: AUC
protein,measurement,value
dihydroneopterin aldolase from Mycobacterium tuberculosis H37Rv (enzyme) MADRIELRGLTVHGRHGVYDHERVAGQRFVIDVTVWIDLAEAANSDDLADTYDYVRLASRAAEIVAGPPRKLIETVGAEIADHVMDDQRVHAVEVAVHKPQAPIPQTFDDVAVVIRRSRRGGRGWVVPAGGAV,stoichiometry N,4
